Experimental findings from paper PMC11289669, “BAR502/fibrate conjugates: synthesis, biological evaluation and metabolic profile” (Frontiers in Chemistry, 2024) are described below.

No end group written: not given here.

Data set [1] in a line: Microsomal stability in human liver microsomes. In kind it is in vitro ADME. How it is done:
Chemical stability in HCl Buffer, PBS buffer and culture medium (EMEM) was evaluated by LC-MS dissolving compound 1 at 10 μM (final concertation) in cited buffers and injecting aliquots removed from incubations at different time points. Microsomal stability was evaluated employing 50 mM potassium phosphate buffer (pH 7.4) containing 0.15 mg of Human liver microsomes (Sigma-Aldrich, St. Louis, MO, United States) 5 mM MgCl2, 1 mM NADPH, 5 mM glucose 6-phosphate, 0.4 U·mL^−1 glucose 6-phosphate dehydrogenase. Compounds were tested at 1 µM final concentration. Aliquots, removed at different time points, were diluted with ice-cold acetonitrile and analyzed by LC-MS.
A general note: Microsomes from liver hold many membrane-bound enzymes, among them those of drug oxidation.

Data set [2] relates to U937 cells. Nature of the data set: Pro-inflammatory gene expression (qRT-PCR) in LPS-activated U937 cells. The class given is cell-based, human. Conditions: LPS 100 ng/mL, 18 h, BAR502 and clofibrate 5 and 10 μM, compound 1 10 μM. The method, then:
U937 cell line were cultured in RPMI 1640 supplemented with 10% FBS, 1% glutamine, and 1% penicillin/streptomycin and were regularly passaged to maintain exponential growth. After 24 h of starvation cells were classically activated with LPS (100 ng/mL; Sigma-Aldrich, St. Louis, MO), and exposed or not to BAR502, clofibrate and compound 1 at the concentration of 5 and 10 μM for 18 h. At the end of the experiment the cells were recovered. Total mRNA extraction from U937 and 3T3.L1 was performed using Tri-Reagent (Zymo Research) and Direct-zolTM RNA MiniPrep w/Zymo-SpinTM IIC Columns (Zymo Research, Irvine, CA). After purification from genomic DNA using DNase I (Thermo Fisher Scientific, Waltham, MA), 1 μg of RNA from each sample was reverse transcribed using Kit […] Basic (Nippon Genetics, […] 20-μL of reaction volume; 50 ng of cDNA was amplified in a 20-μL solution containing 200 nM each primer and 10 μL of PowerUpTM SYBRTM Green Master Mix (Thermo Fisher Scientific, Waltham, MA). All reactions were performed in triplicate using the following thermal cycling conditions: 3 min at 95°C, followed by 40 cycles of 95°C for 15 s, 56°C for 20 s, and 72°C for 30 s, using a QuantStudio 3 system (Applied Biosystems, Foster City, CA). The relative mRNA expression was calculated accordingly to the ΔCt method. Primers were designed using the software PRIMER3 (http://frodo.wi.mit.edu/primer3/) using published data obtained from the NCBI database. The primer used were as following (forward and reverse): hGAPDH (for […]-1β (for [NT], hIL6 (for [NT] hCXCL2 (for [NT] hTNFα; (for [NT], mAdiponectin (for […]ɤ (for [NT], mCebp (for [NT]
(In qPCR the cycle at which signal appears reflects the starting amount.)

Data set [3] addresses T1, PPARα LBD GST fused.
T1 sequence (Q07869 whole entry, species assumed, looked up): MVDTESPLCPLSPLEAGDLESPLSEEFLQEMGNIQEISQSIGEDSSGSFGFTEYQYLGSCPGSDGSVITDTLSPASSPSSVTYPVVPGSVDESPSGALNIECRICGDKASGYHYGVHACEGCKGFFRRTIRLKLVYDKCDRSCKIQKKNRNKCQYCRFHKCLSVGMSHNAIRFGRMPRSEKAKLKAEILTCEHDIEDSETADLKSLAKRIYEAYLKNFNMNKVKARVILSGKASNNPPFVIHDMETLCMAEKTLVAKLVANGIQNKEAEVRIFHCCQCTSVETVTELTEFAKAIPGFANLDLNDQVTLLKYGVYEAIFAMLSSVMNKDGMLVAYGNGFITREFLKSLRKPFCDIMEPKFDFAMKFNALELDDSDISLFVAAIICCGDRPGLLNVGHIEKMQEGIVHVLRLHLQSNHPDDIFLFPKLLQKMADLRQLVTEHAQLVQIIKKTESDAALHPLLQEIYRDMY
Nature of the data set: AlphaScreen or HTRF; coactivator recruitment; 20 nM GST-PPARα-LBD, 60 nM biotinylated SRC1 peptide, 20 μg/mL donor and acceptor beads; 50 mM MOPS, 50 mM NaF, 0.05 mM CHAPS, 0.05% BSA, pH 7.4; 25 μL, 384 wells; compounds at 50 μM for efficacy (% vs. fenofibrate). (In general: Alpha assays give light when donor and acceptor beads are brought close together.)

For data set [4], the target named is T2, FXR-LBD GST-fused.
T2 sequence (Q96RI1 whole entry, species assumed, looked up): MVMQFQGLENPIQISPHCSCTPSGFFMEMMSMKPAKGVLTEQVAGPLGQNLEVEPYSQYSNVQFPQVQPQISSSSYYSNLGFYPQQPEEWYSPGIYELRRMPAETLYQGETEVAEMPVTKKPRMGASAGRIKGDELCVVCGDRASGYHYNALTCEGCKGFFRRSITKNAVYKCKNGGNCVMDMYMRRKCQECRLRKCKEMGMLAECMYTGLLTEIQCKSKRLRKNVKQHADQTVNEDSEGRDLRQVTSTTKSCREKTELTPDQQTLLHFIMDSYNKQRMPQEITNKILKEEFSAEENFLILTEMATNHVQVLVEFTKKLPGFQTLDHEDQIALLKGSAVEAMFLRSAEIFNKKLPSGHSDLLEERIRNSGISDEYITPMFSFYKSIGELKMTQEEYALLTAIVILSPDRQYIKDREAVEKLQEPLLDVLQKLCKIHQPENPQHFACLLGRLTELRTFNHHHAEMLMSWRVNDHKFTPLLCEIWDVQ
Kind of data set: AlphaScreen or HTRF; coactivator recruitment; 10 nM GST-FXR-LBD, 30 nM biotinylated SRC1 peptide, 20 μg/mL donor and acceptor beads; 50 mM Tris-HCl pH 7.4, 20 mM KCl, 1 mM DTT, 0.1% BSA; 25 μL, 384 wells; compounds at 10 μM for efficacy (% vs. CDCA), concentration-response for EC50.

On to `CCOC(=O)C(C)(C)Oc1ccc(Cl)cc1` [clofibrate], for which the “Time to conversion in clofibric acid in human microsomes” value in data set [1] is given as at most 30 min. Further, in data set [2], the “IL-1β mRNA expression” value is given as “reducing the expression of pro-inflammatory cytokines” and the “IL-6 mRNA expression” value was “reducing the expression of pro-inflammatory cytokines”.

CPSSHSSLTERHKILHRLLQEGSPS (also: biotin, position not given here) [biotinylated SRC1 peptide]: in data set [3], the efficacy of SRC-1 recruitment with BAR502 (% vs. fenofibrate) (% vs. fenofibrate) was 36 and the efficacy of SRC-1 recruitment with BAR505 (% vs. fenofibrate) (% vs. fenofibrate) came out at 40. In data set [4], this molecule came in with an EC50 of compound 1 for SRC-1 recruitment (the compound is titrated) of 3.4 µM, an EC50 of compound 3 for SRC-1 recruitment (the compound is titrated) of 17.9 µM, an EC50 of the compound BAR502 for SRC-1 recruitment (the compound is titrated) of 0.69 µM and an efficacy of SRC-1 recruitment with BAR502 (% vs. CDCA) of 153 % vs. CDCA. Further, in data set [4], the efficacy of SRC-1 recruitment with compound 1 (% vs. CDCA) was 79 % vs. CDCA and the efficacy of SRC-1 recruitment with compound 3 (% vs. CDCA) was 48 % vs. CDCA.
